Data published in US20180155451A1 (published 2018).
Like-named read-outs stand apart in the source and are kept apart here.

Tests used:
[1] = biological target: T1, FcgRIIa type H extracellular domain with C-terminal His tag (human, UniProt P12318 34-217); experiment: SPR (Biacore), antibody captured on chip, soluble FcgR as analyte, kinetic 1:1 fit
T1 construct: extracellular domain; also called FcgRIIaH; FcgRIIa H; not shown: His tag at the C terminus
T1 sequence (looked up): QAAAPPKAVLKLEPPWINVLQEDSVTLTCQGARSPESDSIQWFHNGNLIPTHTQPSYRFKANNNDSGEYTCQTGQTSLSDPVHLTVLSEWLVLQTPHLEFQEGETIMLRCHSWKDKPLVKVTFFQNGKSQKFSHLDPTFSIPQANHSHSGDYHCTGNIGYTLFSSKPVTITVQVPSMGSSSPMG

[2] = biological target: T2, FcgRIIa type R extracellular domain with C-terminal His tag (human, UniProt P12318 34-217); experiment: as above
T2 construct: extracellular domain; also called FcgRIIaR; FcgRIIa R; not shown: His tag at the C terminus
T2 sequence (looked up): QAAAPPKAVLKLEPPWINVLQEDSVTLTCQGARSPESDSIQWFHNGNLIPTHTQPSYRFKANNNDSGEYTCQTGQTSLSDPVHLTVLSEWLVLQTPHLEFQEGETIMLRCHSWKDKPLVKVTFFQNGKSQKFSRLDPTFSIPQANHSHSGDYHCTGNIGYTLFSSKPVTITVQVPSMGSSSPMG

[3] = biological target: T3, FcgRIa extracellular domain with C-terminal His tag (human, UniProt P12314 16-292); experiment: as above
T3 construct: extracellular domain; Expressed in FreeStyle293 cells; also called FcγRIa; not shown: His tag at the C terminus

[4] = biological target: T4, FcgRIIb extracellular domain with C-terminal His tag (human, UniProt P31994 43-217); experiment: as above
T4 construct: extracellular domain; Expressed in FreeStyle293 cells; also called FcγRIIb; 2b; not shown: His tag at the C terminus
T4 sequence (looked up): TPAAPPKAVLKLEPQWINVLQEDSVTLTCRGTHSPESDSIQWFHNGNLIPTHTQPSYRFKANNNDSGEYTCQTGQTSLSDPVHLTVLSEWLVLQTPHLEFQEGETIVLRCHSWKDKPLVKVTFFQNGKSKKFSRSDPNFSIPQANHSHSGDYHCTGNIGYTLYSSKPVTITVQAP

[5] = biological target: T1, FcgRIIa type H extracellular domain …; experiment: SPR (Biacore); KD of IL6R-B3/IL6R-L for this FcgR divided by KD of the sample
Protocol: (§1) Analysis of interaction between obj ective antibody and the FcγR was carried out using Biacore T100 (GE Healthcare), Biacore T200, Biacore A100, and Biacore 4000. HBS-EP+ (GE Healthcare) was used as the running buffer, and the measurement temperature was set to 25° C. Chips produced by immobilizing the antigen peptide by the amine coupling method to a Series S sensor Chip CM5 (GE Healthcare), chips produced by allowing preliminarily biotinylated antigen peptides to interact with and immobilize onto a Series S Sensor Chip SA (certified) (GE Healthcare), chips produced by immobilizing Protein L (ACTIGEN, BioVision) to Series S Sencor Chip CM5 (GE Healthcare), or chips produced by immobilizing Protein A/G (Thermo Scientific) to Series S Sencor Chip CM5 (GE Healthcare) were used. Antibodies of interest were captured onto these chips, and allowed to interact to each FcγR diluted with running buffer. To regenerate and repeatedly use the chip, the antibodies captured onto the chip were washed off by reacting 10 mM glycine-HCl, pH 1.5.

[6] = biological target: T2, FcgRIIa type R extracellular domain …; experiment: as above
Protocol: as §1

[7] = biological target: T4, FcgRIIb extracellular domain with …; experiment: as above
Protocol: as §1

[8] = biological target: T5, FcgRIIIa type V extracellular domain with C-terminal His tag (human, UniProt P08637 17-208); experiment: SPR (Biacore), antibody captured on chip, soluble FcgR as analyte, kinetic 1:1 fit
T5 construct: extracellular domain; also called FcgRIIIaV; FcgRIIIa V; not shown: His tag at the C terminus

[9] = biological target: T1, FcgRIIa type H extracellular domain …; experiment: SPR (Biacore); KD of IL6R-B3/IL6R-L for this FcgR divided by KD of the sample; remark: listed apart in the source
Protocol: as §1

[10] = biological target: T2, FcgRIIa type R extracellular domain …; experiment: as above; remark: listed apart in the source
Protocol: as §1

[11] = biological target: T4, FcgRIIb extracellular domain with …; experiment: as above; remark: listed apart in the source
Protocol: as §1

[12] = biological target: T1, FcgRIIa type H extracellular domain …; experiment: SPR (Biacore), antibody captured on chip, soluble FcgR as analyte, kinetic 1:1 fit; remark: listed apart in the source
[13] = biological target: T2, FcgRIIa type R extracellular domain …; experiment: as above; remark: listed apart in the source
[14] = biological target: T3, FcgRIa extracellular domain with …; experiment: as above; remark: listed apart in the source
[15] = biological target: T4, FcgRIIb extracellular domain with …; experiment: as above; remark: listed apart in the source
[16] = biological target: T5, FcgRIIIa type V extracellular domain …; experiment: SPR (Biacore), antibody captured on chip, soluble FcgR as analyte; too weak for kinetics, KD from steady-state 1:1 equation
Protocol: KD can be calculated by substituting the values of Rmax, RI, and C into this equation. The values of RI and C can be determined from the sensorgram of the measurement results and measurement conditions. Rmax was calculated according to the following method.

[17] = biological target: T4, FcgRIIb extracellular domain with …; experiment: SPR (Biacore); KD of the sample for FcgRIIaR divided by its KD for FcgRIIb (selectivity for FcgRIIb)
Protocol: as §1

T5 sequence (P08637 17-208 F176V): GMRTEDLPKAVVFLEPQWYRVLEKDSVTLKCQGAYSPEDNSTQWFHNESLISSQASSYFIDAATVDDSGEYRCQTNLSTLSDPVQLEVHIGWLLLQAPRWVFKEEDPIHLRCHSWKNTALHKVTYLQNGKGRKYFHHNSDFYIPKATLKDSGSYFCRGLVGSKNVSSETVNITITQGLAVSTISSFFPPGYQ
T3 sequence (P12314 16-292): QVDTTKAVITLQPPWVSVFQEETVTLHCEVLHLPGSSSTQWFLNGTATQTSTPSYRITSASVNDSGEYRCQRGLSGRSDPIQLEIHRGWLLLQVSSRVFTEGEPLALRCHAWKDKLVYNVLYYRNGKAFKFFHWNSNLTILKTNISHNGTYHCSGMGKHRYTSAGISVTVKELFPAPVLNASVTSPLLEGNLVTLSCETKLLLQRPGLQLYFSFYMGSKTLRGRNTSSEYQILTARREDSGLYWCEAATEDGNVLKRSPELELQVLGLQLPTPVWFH

B1: IL6R-BP253/IL6R-L (antibody, human IgG1, kappa)
heavy: QVQLQESGPGLVKPSETLSLTCAVSGHSISHDHAWSWVRQPPGEGLEWIGFISYSGITNYNPSLQGRVTISRDNSKNTLYLQMNSLRAEDTAVYYCARSLARTTAMDYWGEGTLVTVSSASTKGPSVFPLAPSSKSTSGGTAALGCLVKDYFPEPVTVSWNSGALTSGVHTFPAVLQSSGLYSLSSVVTVPSSSLGTQTYICNVNHKPSNTKVDKKVEPKSCDKTHTCPPCPAPELLGGPSVFLFPPKPKDTLMISRTPEVTCVVVDVEHEDPEVKFNWYVDGVEVHNAKTKPREEQYNSTYRVVSVLTVLHQDWLNGKEYKCKVSNKAFPAPIEKTISKAKGQPREPQVYTLPPSRDELTKNQVSLTCLVKGFYPSDIAVEWESNGQPENNYKTTPPVLDSDGSFFLYSKLTVDKSRWQQGNVFSCSVMHEALHNHYTQESLSLSP
light: not shown
notes: Homodimer; IL6R-BP253 is IL6R-B3 with S267E and L328F
Binder B1 has a Kd [1] of 860 nM, a Kd [2] of 2.3 nM and a Kd [3] of 0.05 nM. The Kd [4] was 8.9 nM, the “Relative KD” value [5] was 0.9 ratio and the “Relative KD” value [6] was 480 ratio. The “Relative KD” value [7] was 349 ratio, the Kd [8] was 400 nM and the “Relative KD” value [9] was 0.9 ratio. The “Relative KD” value [10] was 480 ratio, the “Relative KD” value [11] was 349 ratio and the Kd [12] was 860 nM. For the same binder, the Kd [13] was 2.3 nM, the Kd [14] was 0.05 nM and the Kd [15] was 8.9 nM. The Kd [16] was 7100 nM and the “KD(IIaR)/KD(IIb)” value [17] was 0.3 ratio.
